Data: the DeepSol protein solubility set

Experiment: soluble on expression in E. coli; label from the status in PepcDB or PDB records

Sequence | soluble on expression in E. coli
QTSPMTPDITGKPFVAADASNDYIKREVMIPMRDGVKLHTVIVLPKGAKNAPIVLTRTPYDASGRTERLASPHMKDLLSAGDDVFVEGGYIRVFQDVRGKYGSEGDYVMTRPLRGPLNPSEVDHATDAWDTIDWLVKNVSESNGKVGMIGSSYEGFTVVMALTNPHPALKVAVPESPMIDGWMGDDWFNYGAFRQVNFDYFTGQLSKRGKGAGIARQGHDDYSNFLQAGSAGDFAKAAGLEQLPWWHKLTEHAAYDAFWQEQALDKVMARTPLKVPTMWLQGLWDQEDMWGAIHSYAAMEPRDKRNTLNYLVMGPWRHSQVNYDGSALGALNFEGDTARQFRHDVLRPFFDQYLVDGAPKADTPPVFIYNTGENHWDRLKAWPRSCDKGCAATSKPLYLQAGGKLSFQPPVAGQAGFEEYVSDPAKPVPFVPRPVDFADRAMWTTWLVHDQRFVDGRPDVLTFVTEPLTEPLQIAGAPDVHLQASTSGSDSDWVVKLIDVYPEEMASNPKMGGYELPVSLAIFRGRYRESFSTPKPLTSNQPLAFQFGLPTANHTFQPGHRVMVQVQSSLFPLYDRNPQTYVPNIFFAKPGDYQKATQRVYVSPEQPSYISLPVR | soluble
QVKLLESGPELVKPGASVKMSCKASGYTFTSYVMHWVKQKPGQGLEWIGYINPYNDGTKYNEKFKGKATLTSDKSSSTAYMELSSLTSEDSAVYYCVRGGYRPYYAMDYWGQGTSVTVSSAKTTPPSVYPLAPGSAAQTNSMVTLGCLVKGYFPEPVTVTWNSGSLSSGVHTFPAVLQSDLYTLSSSVTVPSSTWPSETVTCNVAHPASSTKVDKKIVPRDCTSHHHHHH | soluble
QVQLLESGPELVEPGASVKVSCKASAYSITDFNIYWVKQSHGKNLEWIGGIDPHNGGPVYNQKFNGKATLTVDKSSSTAFMHLNSLTSEDSAVYYCAIFYGNFFDYWGPGTTVTVSSASTKGPSVFPLAPSSKSTSGGTAALGCLVKDYFPEPVTVSWNSGALTSGVHTFPAVLQSSGLYSLSSVVTVPSSSLGTQTYICNVNHKPSNTKVDKKVEPKSCDKTHT | soluble
QVQLVQSGAEVKKPGSSVKVSCTSSEVTFSSFAISWVRQAPGQGLEWLGGISPMFGTPNYAQKFQGRVTITADQSTRTAYMDLRSLRSEDTAVYYCARSPSYICSGGTCVFDHWGQGTLVTVSSGGGGSGGGGSGGGGIQPGLTQPPSVSKGLRQTATLTCTGNSNNVGNQGAAWLQQHQGHPPKLLSYRNNDRPSGISERFSASRSGNTASLTITGLQPEDEADYYCSTWDSSLSAVVFGGGTKLTVLGQPKAAPSAAAEQKLISEEDLNGAAHHHHHH | soluble
QVRQSPQSLTVWEGETTILNCSYENSAFDYFPWYQQFPGEGPALLIAIRSVSDKKEDGRFTIFFNKREKKLSLHITDSQPGDSATYFCAATGANTGKLTFGHGTILRVHPNIQNPDPAVYQLRDSKSSDKSVCLFTDFDSQTNVSQSKDSDVYITDATVLDMRSMDFKSNSAVAWSNKSDFACANAFNNSIIPEDTFFPS | soluble
QVVMPRPPALCQGCGHRDVYDALNKVAAEYPDARIFGDIGCYTLGALPPFRAIDSCVDMGASITMAKGASDAGVFPAIAVIGDSTFTHSGMTGLLDAVNDRANITVVISDNLTTAMTGGQDSAGTNKFEAICLGLGVEPEHVRVVVPLPKNMEEITRTIREEIEYKGVSVIIPRRECIQTLNRKLRQKKADKA | not soluble
RAAIHDIATPVAIVDEQGRVVNLNAAAEQMLAVDKHEALTEPLNDFLGGDDIATDGGSSRVSIEADGRHREYKVQQTALRDETGTQLGYTVVFQDIT | soluble
RADEQAFLVALYKYMKERKTPIERIPYLGFKQINLWTMFQAAQKLGGYETITARRQWKHIYDELGGNPGSTSAATCTRRHYERLILPYERFIKGEEDKPLPPIKPRK | soluble
RAKLMEERETSLKDSVEVAFDAVRLIANNPNLSEAEAKQQVKAVLTNIRYGSDGYFFAYDAQGTNLVHPIQPELVGQNLWQLQDERGDFLIQ | not soluble
RAVDNAEPAALETSTRTIPTNGRTMTPVQATYWVGRQPDYALGGIATRFYMEHDITIDGPMDEWIDALRRSWNTVVQRHGMLRATVDRDGKISIADTVTEHPLPVHNADHAAEVRERLAHRTADLGTWPVHDIELTTITATTVRIHCGFDVILIDYPSIMRVLNDWGRALAGYDLGTEDTSFSDLIAQGIAEPCPSDEAYWRERAPRLLPGPLDLAEMTYDAATTPEFHRHTRTIAAQQWKQFVDNAHAHGTNASSALLAVAAHSLRHVGPRRSFTLGATFFSPDVLEHGPVGDFTRTGVVELPDTADTFAQQASAAQHELWEAFDHASVTSADIMRWRNSDTTGQALPDYPVVFTSALGHGDSTDWPGVMTWGVSQTPQVLMDLLHWESDGDLVLAWDCVDAALPENFADNAIDIAYAVIQQLTNPAVWTDPTVVADPWLRMPGPMERIGESELIDAPLRA | not soluble
REAFVSIQTSTIPKTAYAAVNFVETQGEDESYTDSLSTDNKRDIYADFAVIEIPLFLTNHRDYQVFNEFIKPAIETYKQLGNSSFEKKQLDQHKNDNFYMLGYPLVESSIDALILNQRRQYNNSYTEKYTPQTLTKDQRTIDLSREVPTLIQNKTENSTGSQLLVNQSLSSTSEGIIE | soluble
REIADNTYIVLGTMTLNDFNEYFETDLESDNVDTIAGFYLTGVGTIPSQEEKEHFEVESNGKHLELINDKVKDGRVTKLKILVSE | soluble
RENFPGVSWDSLPDELLLGIFSCLCLPELLKVSGVCKRWYRLASDESLWQTLDLTGKNLHPDVTGRLLSQGVIAFRCPRSFMDQPLAEHFSPFRVQHMDLSNSVIEVSTLHGILSQCSKLQNLSLEGLRLSDPIVNTLAKNSNLVRLNLSGCSGFSEFALQTLLSSCSRLDELNLSWCFDFTEKHVQVAVAHVSETITQLNLSGYRKNLQKSDLSTLVRRCPNLVHLDLSDSVMLKNDCFQEFFQLNYLQHLSLSRCYDIIPETLLELGEIPTLKTLQVFGIVPDGTLQLLKEALPHLQINCSHFTTIARPTIGNKKNQEIWGIKCRLTLQKPSCL | soluble
RGIAVYVEHHNGNIHPVTYELIGKAREMASKIKQPVYCVFVGKDIKDKCSNLISYGVDEVFVYDEDEFKDFRIEPYSKAIENFIDKIKPTIVLVGGTTLGRSLAPRLAARFRTGLTADCTILDIQSNTDLDQIRPAFGGNIMAHINTPNNRPQFATVRYKIFSAPEKIENTTGKITLCKVEKKELKSKIKVLS | not soluble
RGSLTIYIGYSPGVGKTFEMLSNAIELFQSNVDIKIGYIEPHQRDETNALAEQLPKITTNFTKHGSHHFQYLDVDRIIEESPTIVLIDELAHTNISRDRHEKRYMDIEEILNHGIDVHTTLNIQHIESLSSQIELMTGVHVKERVPDYFIMSADVLEVVDISPEQLIKRLKAGKVYKKDRLDVAFSNFFTYAHLSELRTLTLRTVADLMSDKEKVRHNHKTS | not soluble
RPSSVVIGTASQGGVYYIYGGGLAQLLDRELGVSSNVEVTGGPVHNMQLVNEQEQDIGMITMGPGYEGVLGEGEWTGGETYDNVRVIFPMYTTPFHWWSLESSGVTSIEDMDGMRVGVGPSGGTSGTYLPIIHEVLGLDITPVLAGANDMVSQQLDGQLDVIGFAAGLPIPAVAEVEAQRDIHLFGIDGENRDKVLEALPYFEPYTIPADTYDQLDEDLETIAMFNFGITYSEMNADFVYELVKAYHENNDLLMTTHSSAEEAVPEAILRNEVVPLHVGAIRYYEEIGIDLPESVYPAEWENE | not soluble
RRFEPLLLLPIGFGGLLSNIPEAGLAMTALDHLLHYAHTEQLTIIAEKVNSSSLDVHTIKQAIAFAPPSVQNELEVIASDLGYNAG | not soluble
RRNALELEVFAGQEKSELSMIEVARAILELRGRDHEMHFSDLVNEIQNYLGTSNSDIREALPLFYTELNFDGSFISLGDNKWGLRSWYGVDEIDEEIIALEENDDDEVAPKAKKKRVNAFMDGDSDAIDYNADDPEDEDAYEADPALSYDDENPDDEKNEVEAYDAEINEIAPDDLGEDVDLNEDDDEFSDDDAET | not soluble
RSRLVQFQKNTDEPMGITLKMNELNHCIVARIMHGGMIHRQGTLHVGDEIREINGISVANQTVEQLQKMLREMRGSITFKIVPSYREF | soluble
RTMGFYVAKGNPKNITGWEDFRRDDLTMVNRERGCGTRILLDEHLRLLNIDGNKINGYSRESLSHLAIASIISRNGADIGIGNEKTGLQVANIDFIPIQRERYDLVIRKDDIEKPPFKAIIDILQSETFKSELMGIGGYDLTQTG | not soluble
RTVRQTPKQSERYVVVLSLDGFRPDYTDRARTPALDRMAQEGLSGSLQPCFPSLTFPNHYSMATGLYPDHHGIVANEFVDSLLGIFRISDRKAVETPGFWGGEPVWNTAARQGIRTGVYFWVGSETAVNGNRPWRWKKFSSTVPFRDRADSVIAWLGLPEKERPRLLMWYIEEPDMIGHSQTPESPLTLAMVERLDSVVGYFRKRLDSLPIAAQTDFIIVSDHGMATYENEKCVNLSH | not soluble
SAALRYAGLDDTDSEDELPPGWEERTTKDGWVYYANHTEEKTQWEHPKTGKRKRVAGDLPYGWEQETDENGQVFFVDHINKRTTYLDPRLAFTVDDNPTKPTTRQRYDGSTTAMEILQGRDFTGKVVVVTGANSGIGFETAKSFALHGAHVILACRNMARASEAVSRILEEWQQGAATTVYCAAVPELEGLGGMYFNNCCRCMPSPEAQSEETARTLWALSERLIQERLGSQSG | soluble
SAASAALILPESPSMKKAVPLINAIDTGRFPRLLSRILQKLHLKAESSFSEEEEEKLQAAFSLEKQELHLVLETISFVLEQAVYHNVKPAALQQQLEMIHLRKDKAEAFASAWSAMGQETVEKFRQRILGPHKLETVGWQLNLQMAHSAQAKLQSPQAVLQLGVSKEDAKNVEKVLVEFNHKELFDFYNKLETIQAQLDSLT | soluble
SADDKDVLRDVWFGRIPACFTLSPDETTEREAEPYYLLLPRVSYLTLVTDKVKKHFLKVMKAEDVEEMWFEHEGTPLKWHYPIGVLFDLHASNSALPWNVTVHFKNFPEQDLLHCSTNSVIEAHFMSCIKEADALKHKGQVINDMQKKDHKQLWMGLQNDKFDQFWAMNRKLMEYPTEEGGFRYIPFRIYQTMSDRPFIQTLFRPVSSEGQALTLGDLLKELFPAAIEDEPKKFQVMIHGIEPLLETPIQWLSEHLSHPDNFLHISIIPAPSD | soluble
SADHDLFRETVYAESLDEALERYSVDTVGDSELATLLPHIEKTFGFPTWAQINEALDTYPDREFVNTVTELLSTANPESLVAAVELMVASARSTTLREELDHEVVLGEYIRSRPNFAEGVRAVLVDKDRNADFTPATTGEVDVTPMRKLLKN | not soluble
SADNGGYVPAVVIGTGYGAAVSALRLGEAGVQTLMLEMGQLWNQPGPDGNIFCGMLNPDKRSSWFKNRTEAPLGSFLWLDVVNRNIDPYAGVLDRVNYDQMSVYVGRGVGGGSLVNGGMAVEPKRSYFEEILPRVDSSEMYDRYFPRANSMLRVNHIDTKWFEDTEWYKFARVSREQAGKAGLGTVFVPNVYDFGYMQREAAGEVPKSALATEVIYGNNHGKQSLDKTYLAAALGTGKVTIQTLHQVKTIRQTKDGGYALTVEQKDTDGKLLATKEISCRYLFLGAGSLGSTELLVRARDTGTLPNLNSEVGAGWGPNGNIMTARANHMWNPTGAHQSSIPALGIDAWDNSDSSVFAQIAPMPAGLETWVSLYLAITKNPQRGTFVYDAATDRAKLNWTRDQNAPAVNAAKALFDRINKANGTIYRYDLFGTQLKAFADDFCYQPLGGCVLGKATDDYGRVAGYKNLYVTDGSLIPGSVGVNPFVTITALAERNVERIIKQDVTAS | soluble
